The source of these data is US20170020994.

The test system of data set [1] is RA-TALE_ICP4 (ICP4-TALE-VP16) (synthetic construct). As to the kind of experiment: cell_activity. Particulars: Fluc reporter with ICP4 promoter, 293T.
In data set [2] the test system is RA-TALE_ICP0 (ICP0-TALE-VP16) (synthetic construct). The data set is described as follows: cell_activity. Particulars: Fluc reporter with ICP0 promoter, 293T.

Turning to “GGCAGATGGCGCGGATG (double strand) [ICP4 promoter TALE site]”, the activity (fold activation) in data set [1] is 60.
“GGGACGCGCGGCCAT (double strand) [ICP0 promoter TALE site]” gave an activity (fold activation) in data set [2] of 20.
